Test results reported in US20220016243A1 (published 2022).

Target: T1, TIGIT (T-cell immunoreceptor with Ig and ITIM domains), peripheral TIGIT receptors on patients' CD4+ T cells, … (human (patients), UniProt Q495A1 22-244)
T1 construct: whole, on cells; Endogenous receptor on patients' peripheral immune cells; Occupancy was measured ex vivo after dosing with tiragolumab
T1 sequence (looked up): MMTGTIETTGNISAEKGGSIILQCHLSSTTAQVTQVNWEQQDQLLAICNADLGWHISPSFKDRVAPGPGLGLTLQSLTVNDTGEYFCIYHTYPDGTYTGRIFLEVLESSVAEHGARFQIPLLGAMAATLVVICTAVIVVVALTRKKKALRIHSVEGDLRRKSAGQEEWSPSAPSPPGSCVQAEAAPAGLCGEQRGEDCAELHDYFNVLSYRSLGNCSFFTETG
Experiment: receptor occupancy on peripheral CD8+ T cells and NK cells of patients dosed at 2-1200 mg Q3W (Phase Ia, Study GO30103)

B1: tiragolumab (antibody, human IgG1, kappa, V domains shown)
VH: EVQLQQSGPGLVKPSQTLSLTCAISGDSVSSNSAAWNWIRQSPSRGLEWLGKTYYRFKWYSDYAVSVKGRITINPDTSKNQFSLQLNSVTPEDTAVFYCTRESTTYDLLAGPFDYWGQGTLVTVSS
VL: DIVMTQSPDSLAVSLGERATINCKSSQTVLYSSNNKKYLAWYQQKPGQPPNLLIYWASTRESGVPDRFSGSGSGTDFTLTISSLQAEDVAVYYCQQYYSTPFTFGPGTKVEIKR
notes: also called MTIG7192A; RG6058
binding result: binds
